Where a chain is given by its changes, count along the chain named. Names and notes keep the numbering of the source.
B1: alpha/beta hydrolase variant of SEQ ID NO: 34 (N167T, F168Y, S174C, D179E, A182C, A183R, K186R, A187R, F218Y, S304R) (enzyme)
chain: MTDQSPETRDIFVPHAFEEQQVDLGEVVMNYVEAGSADHPALLLLPEQTGSWWSYEPVIGLLAESFHVFAVDIRGQGRSTWTPKRYSLDNFGNDLVRFISLVVKRPVIVSGNSSGGVLAAWLSAYAMPGQIRAALCEDTPFFASELVPAHGHSVRQAAGPAFELYRTYLGDQWCVADWEGFCRAARRSPSKIMSLFPSSDEPPQNLKEYDPEWARAFYEGTVALHCPHDLMLSQVKTPILITHHARAVDPHSGDLLGALSDFQAERAQAIIESAGVPVEYASFPDALHMMHQFEPERFAEVLTRWVARLPADTPGAHHHHHH
notes: homo-tetramer; also called zearalenone-cleaving polypeptide
B2: alpha/beta hydrolase variant of SEQ ID NO: 5 (N167A) (enzyme)
chain: B1 chain with T167A, Y168F, C174S, E179D, C182A, R183A, R186K, R187A, Y218F, R304S
notes: as for B1
B3: alpha/beta hydrolase variant of SEQ ID NO: 9 (N167T, S174C) (enzyme)
chain: B1 chain with Y168F, E179D, C182A, R183A, R186K, R187A, Y218F, R304S
notes: as for B1
B4: alpha/beta hydrolase variant of SEQ ID NO: 4 (N167S) (enzyme)
chain: B1 chain with T167S, Y168F, C174S, E179D, C182A, R183A, R186K, R187A, Y218F, R304S
notes: as for B1
B5: alpha/beta hydrolase variant of SEQ ID NO: 8 (N167T, S174T) (enzyme)
chain: B1 chain with Y168F, C174T, E179D, C182A, R183A, R186K, R187A, Y218F, R304S
notes: as for B1
B6: alpha/beta hydrolase variant of SEQ ID NO: 7 (N167L) (enzyme)
chain: B1 chain with T167L, Y168F, C174S, E179D, C182A, R183A, R186K, R187A, Y218F, R304S
notes: as for B1
B7: alpha/beta hydrolase variant of SEQ ID NO: 6 (N167C) (enzyme)
chain: B1 chain with T167C, Y168F, C174S, E179D, C182A, R183A, R186K, R187A, Y218F, R304S
notes: as for B1

Biological target: the molecule itself
Assay: Blue-Native-PAGE, oligomeric conformation (self-association of identical chains)
Excerpt: Comparison of the native molecular weight (oligomeric conformation) between single purified zearalenone-cleaving polypeptides was done via Blue-Native-PAGE. Dilutions of the elutes were supplied with not denaturating loading dye (e.g. 2× loading dye: 0.126 M tris(hydroxymethyl)aminomethan/hydrochloric acid pH 6.8, 20.0% glycerol, 4.0% Coomassie Blue G-250) and separated on a 4-15% polyacrylamid gel under native conditions (e.g. Mini-PROTEAN® Tetra Cell System, 1658004EDU+4-15% Mini-PROTEAN® TGX™ Precast Protein Gels, 4561083EDU, Bio-Rad Laboratories GmbH) (5× Anode Buffer: 0.125 M Tris(hydroxymethyl)aminomethane, 0.960 M Glycine, 1× Kathode Buffer: Anode Buffer+0.02% Coomassie Blue G250; 200 V, 40 minutes). The peptide bands were visualized by Coomassie staining. The oligomeric state of selected zearalenone-cleaving polypeptides was determined by size exclusion chromatography, SEC-MALS or X-Ray crystallography. Homo-dimers (e.g. SEQ ID NO. 1) migrated faster across the BN-PAGE gel matrix, while homo-tetramers (e.g. SEQ ID NO. 2-35) were retained in the gel matrix to a higher extent. The oligomeric conformation of the zearalenone-cleaving polypeptides was determined relatively to the migration of homo-dimeric and homo-tetrameric peptides.

Binding result, binds:
B1, B2, B3, B4, B5, B6, B7
